One data set in a line: in vivo. The note with it: male, athymic nude (outbred) CrTac:NCr-Foxn1nu, mouse, iv, 11.1 MBq, total radioactivity, Activity concentration. Also noted: species or system mice.
Another data set has as its system PC-3 tumor–bearing mice. The note with it: mouse, in vivo.

Regarding `CC(C)C[C@H](NC(=O)C[C@H](O)[C@H](CC(C)C)NC(=O)[C@H](Cc1c[nH]cn1)NC(=O)CNC(=O)[C@@H](NC(=O)[C@H](C)NC(=O)[C@H](Cc1c[nH]c2ccccc12)NC(=O)[C@H](CCC(N)=O)NC(=O)[C@@H](Cc1ccccc1)NC(=O)CCOCCOCCOCCOCCNC(=O)CN1CCN(CC(=O)O)CCN(CC(=O)O)CCN(CC(=O)O)CC1)C(C)C)C(N)=O` [^90Y-DOTA-AR, metal not drawn], in the data set “in vivo” (PC-3 tumor), the tissue uptake at 1 h was found to be 3.62 ± 0.95 %ID/g, the tissue uptake at 4 h worked out at 2.92 ± 0.57 %ID/g, the tissue uptake at 24 h amounted to 0.45 ± 0.04 %ID/g and the tissue uptake at 48 h came to 0.1 ± 0.05 %ID/g. In “in vivo” (kidney), the tissue uptake at 1 h was 1.76 ± 0.61 %ID/g, the tissue uptake at 4 h was 0.78 ± 0.14 %ID/g, the tissue uptake at 24 h was found to be 0.17 ± 0.02 %ID/g and the tissue uptake at 48 h is 0.07 ± 0.01 %ID/g. Also, in “in vivo” (liver), the tissue uptake at 1 h stood at 0.21 ± 0.05 %ID/g, the tissue uptake at 4 h is 0.12 ± 0.06 %ID/g, the tissue uptake at 24 h is 0.04 ± 0.01 %ID/g and the tissue uptake at 48 h was 0.02 %ID/g. In the data set with PC-3 tumor–bearing mice, the “Radiation dose to kidney” value amounted to 0.06 ± 0.01 Gy/MBq and the “Radiation dose to kidney, range” value is given as 0.05–0.08 Gy/MBq.

For orientation: tissue uptake means the percentage of the injected dose found per gram of tissue.

These data come from PMC4470706 (Journal of nuclear medicine : official publication, Society …, 2015).
